In the supplement of paper PMC10724198:
± gives the standard deviation of the averaged measurements.

Test system: Saccharomyces cerevisiae
Test: protein stability index of tFT-peptide fusion (C-terminal peptide) (PSI (0-1 scale)); higher = more stable (slower turnover)
Details: temperature: 30 C
Protocol: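 MPS profiling in S. cerevisiae of the yeast C-terminome library: the last 12 aa of each annotated ORF are fused to the C-terminus of a sfGFP-mCherry timer, after a GGGS linker. Cells are FACS-sorted into 8 mCherry/sfGFP bins and deep-sequenced. PSI runs from 0 (unstable) to 1 (stable); wild type and das1Δ backgrounds, two technical replicates each.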

[1] = genetic background: das1 deletion

Sequence | protein stability index [1] | protein stability index (genetic background: wild type)
LTLARYRAKGML [TOM71 C-terminal 12 aa] | 0.6936 ± 0.0042 | 0.657 ± 0.018
TNPHQADASPKK [MPE1 C-terminal 12 aa] | 0.71 ± 0.023 | 0.702 ± 0.021
YVPPPTYTEMAS [ART10 C-terminal 12 aa] | 0.7074 ± 0.0038 | 0.66 ± 0.011
MCSIINIQQWYV [YGL182C C-terminal 12 aa] | 0.6733 ± 0.0013 | 0.627 ± 0.01
SLLVEDGGNPTA [YPL150W C-terminal 12 aa] | 0.695 ± 0.007 | 0.69 ± 0.026
IDSNNAQSKIFS [MYO1 C-terminal 12 aa] | 0.6956 ± 0.00034 | 0.6648 ± 0.0055
QLQLIMFGKKFK [AAC1 C-terminal 12 aa] | 0.698 ± 0.0099 | 0.717 ± 0.036
AVSEELIKMWYD [GCN3 C-terminal 12 aa] | 0.7218 ± 0.0015 | 0.736 ± 0.037
NPSLRQSRIQGW [YGR161W-C C-terminal 12 aa] | 0.725 ± 0.005 | 0.731 ± 0.034
LRANANMPTPSL [RLF2 C-terminal 12 aa] | 0.7083 ± 0.0022 | 0.665 ± 0.0083
YNSLKKGASKSK [CNL1 C-terminal 12 aa] | 0.714 ± 0.021 | 0.74 ± 0.071
VVFLSVLKRNDL [YOL099C C-terminal 12 aa] | 0.685 ± 0.031 | 0.772 ± 0.11
HSRNPKRSSTTL [TRK1 C-terminal 12 aa] | 0.737 ± 0.034 | 0.767 ± 0.069
NVTAVKALNECF [SKI3 C-terminal 12 aa] | 0.6887 ± 0.0054 | 0.652 ± 0.026
KNHEMGEEETKF [TCB1 C-terminal 12 aa] | 0.715 ± 0.0045 | 0.721 ± 0.041
ESEKELYNATRA [NHP6B C-terminal 12 aa] | 0.68817 ± 0.00058 | 0.716 ± 0.034
DEEDEEDVKTEV [CAB3 C-terminal 12 aa] | 0.6848 ± 0.0014 | 0.664 ± 0.016
HAEFHARNLGLI [YJL068C C-terminal 12 aa] | 0.7036 ± 0.0021 | 0.686 ± 0.023
TSSFTEAVIKRL [IDH2 C-terminal 12 aa] | 0.696 ± 0.011 | 0.6628 ± 0.0025
KQIVFEIPSQTN [RPS7B C-terminal 12 aa] | 0.69872 ± 0.00027 | 0.673 ± 0.0084
FQVVGKKKGKRF [SYH1 C-terminal 12 aa] | 0.715 ± 0.009 | 0.688 ± 0.049

Sequence | protein stability index [1] | protein stability index (genetic background: wild type)
LISRRREDEERN [YPL216W C-terminal 12 aa] | 0.788 ± 0.038 | 0.726 ± 0.037
SIDETELAKWNE [PEP3 C-terminal 12 aa] | 0.734 ± 0.063 | 0.7 ± 0.048
SVLTGGAVWMLF [DFG5 C-terminal 12 aa] | 0.7186 ± 0.0037 | 0.652 ± 0.013
GNLPQPVFQPLL [VHR1 C-terminal 12 aa] | 0.701 ± 0.0019 | 0.6795 ± 0.0033
ERAIKTVRYLLY [YOL079W C-terminal 12 aa] | 0.678 ± 0.008 | 0.631 ± 0.021
SQMRPPSQGDKI [DAL82 C-terminal 12 aa] | 0.714 ± 0.024 | 0.675 ± 0.023
NALKSKQKNKDD [AYR1 C-terminal 12 aa] | 0.684 ± 0.0082 | 0.698 ± 0.044
YCPELGKTECFD [FMP30 C-terminal 12 aa] | 0.691 ± 0.0061 | 0.69 ± 0.0088
KISTHSNAPSPG [SMA1 C-terminal 12 aa] | 0.669 ± 0.015 | 0.675 ± 0.022
GFRPECLYYYIK [YPR016W-A C-terminal 12 aa] | 0.5801 ± 0.0036 | 0.564 ± 0.024
VLDDAEETKESH [ATP14 C-terminal 12 aa] | 0.689 ± 0.024 | 0.67 ± 0.023
DTTFPQDQHDID [PUT7 C-terminal 12 aa] | 0.696 ± 0.012 | 0.629 ± 0.059
LKNKKKLYKTKV [PPQ1 C-terminal 12 aa] | 0.7157 ± 0.0043 | 0.694 ± 0.017
RHEGQRSKNSVK [GYP7 C-terminal 12 aa] | 0.686 ± 0.015 | 0.689 ± 0.019
KSEGGDLPHLVQ [SPS4 C-terminal 12 aa] | 0.701 ± 0.024 | 0.68 ± 0.013
SGGFGGSGSGFI [FUB1 C-terminal 12 aa] | 0.6972 ± 0.0036 | 0.691 ± 0.013
RRQSPPGYYVIR [YLR311C C-terminal 12 aa] | 0.747 ± 0.0064 | 0.708 ± 0.027
NTSLLFKKWEGS [CEM1 C-terminal 12 aa] | 0.707 ± 0.01 | 0.702 ± 0.04
ELTLFLSYKSYS [YGR045C C-terminal 12 aa] | 0.683 ± 0.02 | 0.64 ± 0.017
AIAEIKKSLAFA [SDH2 C-terminal 12 aa] | 0.684 ± 0.024 | 0.688 ± 0.086
PLQRNSNVSHHL [MPH2 C-terminal 12 aa] | 0.69243 ± 0.00056 | 0.7038 ± 0.0037

Sequence | protein stability index [1] | protein stability index (genetic background: wild type)
IEHYKSEQEKSL [MUP1 C-terminal 12 aa] | 0.6971 ± 0.0015 | 0.67 ± 0.035
KLLEESKGLLDV [YJR079W C-terminal 12 aa] | 0.701 ± 0.023 | 0.699 ± 0.013
KGIKGFFHRIFD [YGR126W C-terminal 12 aa] | 0.6963 ± 0.002 | 0.68 ± 0.018
IGRRKLVGYKHH [ATP20 C-terminal 12 aa] | 0.702 ± 0.02 | 0.666 ± 0.015
ASRHSSTKKTST [CAB1 C-terminal 12 aa] | 0.6986 ± 0.0058 | 0.692 ± 0.054
CKSHAITNNITM [YER152C C-terminal 12 aa] | 0.711 ± 0.026 | 0.687 ± 0.0091
YCFAKNDLFFNN [POM152 C-terminal 12 aa] | 0.743 ± 0.014 | 0.716 ± 0.011
TALLVSYCHLCV [YMR122C C-terminal 12 aa] | 0.625 ± 0.0077 | 0.6243 ± 0.0048
EDSSDSSDSDSD [BDF2 C-terminal 12 aa] | 0.669 ± 0.015 | 0.675 ± 0.068
MQTKIEHYMESI [MRX12 C-terminal 12 aa] | 0.712 ± 0.028 | 0.68 ± 0.053
RFREEAYYSQFR [TCD2 C-terminal 12 aa] | 0.716 ± 0.013 | 0.672 ± 0.037
FLPFFLRFLCIN [YML116W-A C-terminal 12 aa] | 0.618 ± 0.021 | 0.206 ± 0.021
ENKPDSTFGIIL [YOR170W C-terminal 12 aa] | 0.718 ± 0.019 | 0.749 ± 0.11
EPTLKLSNIYRQ [YBR174C C-terminal 12 aa] | 0.7092 ± 0.0033 | 0.71982 ± 0.00048
EKVTNTLSSLKF [LTV1 C-terminal 12 aa] | 0.694 ± 0.0074 | 0.669 ± 0.017
IKLADAIYKGLE [FOL1 C-terminal 12 aa] | 0.702 ± 0.013 | 0.6648 ± 0.0011
ERTKLREKLEII [PXA1 C-terminal 12 aa] | 0.7064 ± 0.0059 | 0.677 ± 0.077
WAINESEGYGFR [HUL4 C-terminal 12 aa] | 0.727 ± 0.016 | 0.708 ± 0.051
DDEEDEEEGQVA [USO1 C-terminal 12 aa] | 0.704 ± 0.013 | 0.66 ± 0.027
RYRNQIDDFDFS [IMP3 C-terminal 12 aa] | 0.71 ± 0.034 | 0.754 ± 0.097
PAETTDEGWTMI [ATG26 C-terminal 12 aa] | 0.704 ± 0.023 | 0.68 ± 0.014

Sequence | protein stability index [1] | protein stability index (genetic background: wild type)
HVDKRTKIDQEA [ISW2 C-terminal 12 aa] | 0.702 ± 0.056 | 0.681 ± 0.016
TGKVFTRTNQSK [YFL019C C-terminal 12 aa] | 0.71 ± 0.035 | 0.698 ± 0.011
DHSNAFESILIF [TRS130 C-terminal 12 aa] | 0.6353 ± 0.0054 | 0.684 ± 0.093
RLIKHINDIFWK [GPI13 C-terminal 12 aa] | 0.717 ± 0.077 | 0.723 ± 0.092
LVLLLQIYFFSF [YGR242W C-terminal 12 aa] | 0.277 ± 0.03 | 0.296 ± 0.0078
TDNTVDKFDFYK [RPT3 C-terminal 12 aa] | 0.711 ± 0.016 | 0.71 ± 0.013
ILELVNEDYQSI [MRP17 C-terminal 12 aa] | 0.738 ± 0.048 | 0.71 ± 0.039
TVRKGVYMRLYY [YNL146C-A C-terminal 12 aa] | 0.668 ± 0.0024 | 0.634 ± 0.036
ISNDMQVPPQIS [CKS1 C-terminal 12 aa] | 0.722 ± 0.0098 | 0.688 ± 0.011
LNAVESLKEAST [TIM11 C-terminal 12 aa] | 0.69 ± 0.0078 | 0.686 ± 0.029
LKTSGRYQEDVW [NCP1 C-terminal 12 aa] | 0.706 ± 0.02 | 0.702 ± 0.02
PAAIKQAIAANA [TRX1 C-terminal 12 aa] | 0.45 ± 0.014 | 0.489 ± 0.013
KKPLFKRKVLQI [YNL205C C-terminal 12 aa] | 0.6883 ± 0.0025 | 0.422 ± 0.011
DDDEMDIEFEDV [TFA1 C-terminal 12 aa] | 0.71135 ± 0.00066 | 0.739 ± 0.01
RRSQLREHACVD [LDB7 C-terminal 12 aa] | 0.707 ± 0.013 | 0.7096 ± 0.0049
ALNQVLGVPGAM [SSH1 C-terminal 12 aa] | 0.683 ± 0.017 | 0.671 ± 0.031
NPHPRIQMKMSV [CDC21 C-terminal 12 aa] | 0.663 ± 0.035 | 0.624 ± 0.048
IVFVPSSSYSVN [YJR157W C-terminal 12 aa] | 0.711 ± 0.014 | 0.671 ± 0.021
IVQLGMSHGDIS [SMF1 C-terminal 12 aa] | 0.711 ± 0.028 | 0.699 ± 0.023
